According to the nanobody polyreactivity screen of Harvey et al. (2022):

experiment: yeast display, Sf9 membrane polyspecificity reagent, FACS + sequencing; frameworks hold sequencing errors
Method in brief: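 Nanobodies from a synthetic yeast display library (Saccharomyces cerevisiae BJ5465), induced 36–48 hours with galactose, were stained 1 hour at 4 °C with 10% biotinylated, detergent-solubilized Sf9 membrane reagent, enriched on streptavidin microbeads, then FACS-sorted. Anti-HA (expression) and streptavidin (reagent binding) fluorescence set low and high (top ~1%) gates. Polyreactivity labels come from the gate of origin. Genes were colony-PCR amplified, MiSeq 2 × 250 sequenced and filtered by CDR length.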

Row | Sequence | polyreactivity (PSR sort gate)
1 | QVQLVESGGGLVQAGGSLRLSCAASGGTFLAYAMGWYRQAPGKERELLATITSGGSTNYADSVKGRFTISRDNAKNTVYVQMNSLKPEDTAVYYCAASGRDFIAESPYDYWGQGTQVTVSS | low polyreactivity
2 | QVQLVESGGGLVQAGGSLRLSCAASGGTFLAYAMGWYRQAPGKERELVAAITRRGTRTYYADSVKGRFTISRDNAKNTVYLQMNSLKPEDTAVYYCAVSGGFYWGQGTQVTVSS | high polyreactivity
3 | QVQLVESGGGLVQAGGSLRLSCAASGGTFLYYMGWYRQSPGKERELVAAITFSGGSTYYADSVKGRFTISRDNAKNTVYLQMNSLKPEDTAVYYCAAGWYDWPKYLLSVYTYYLYDSWGQGTQVTVSS | low polyreactivity
4 | QVQLVESGGGLVQAGGSLRLSCAASGGTFNGYAMGWYRQAPGKERELVAAITSGGGSTYADSVKGRFTISRDNAKNTVYLQMNSLKTEDTAVYYCNADQWDEWFWDYDYWGQGTQVTVSS | low polyreactivity
5 | QVQLVESGGGLVQAGGSLRLSCAASGGTFPLYAMGWYRPAPGKERELVAAIRWSGGRTYYADSVKGRFTISRDNAKNTVYLQMNSLKPEDTAVYYCAADYDDGWGYDYWGQGTQVTVSS | high polyreactivity
6 | QVQLVESGGGLVQAGGSLRLSCAASGGTFQRYVMGWYIQAPGKERELVAAISRSGSTYADSVKGRFTISRDNAKNTVYLQMNSLKPEDTAFYYCNVVRYYRYYLHGYDYWGQGTQVTVSS | high polyreactivity
7 | QVQLVESGGGLVQAGGSLRLSCAASGGTFQWNAMGWYRQAPGNERELVAAITSGGRTNYADSVKGRFTISRDNAKTTVSFQLNSLKPEDTAVYYCAATAWDRYIDYDYWGQGTQETVSS | high polyreactivity
8 | QVQLVESGGGLVQAGGSLRLSCAASGGTFRDYAMGWYRQAPGKERELVASISWTVGGTYADSVKGRFSISRDNAKNTVYLQMNSLKPEDTAVYYCAADYSPSTWYLYYTLYYYWGQGTQVTVSS | low polyreactivity
9 | QVQLVESGGGLVQAGGSLRLSCAASGGTFRFNAMGWYRQAPGKERELVAAISRGGSTNYADSVKGRFTISRDNAKNTVYLQMNSLKPEDTAVYYCAADTYHPRFWYDYWGQGTQVTVSS | low polyreactivity
10 | QVQLVESGGGLVQAGGSLRLSCAASGGTFRGYTMGWYRPAPGKERELVAAITRIGGSTYYADSVKGRFTISRDNAKYTVYLQMNSLKPEDTAVYYCAARGGVPYSNAYDFWGQGTQVTVSS | low polyreactivity
11 | QVQLVESGGGLVQAGGSLRLSCAASGGTFRPYAMGWYRQAPGKERELVATIRSSGGRTYYADSVKGRFTISRDNAKNTVYLQMNSLKPDDTAVYYCAKRAQTYYGYDYWGQGTQVTVSS | high polyreactivity
12 | QVQLVESGGGLVQAGGSLRLSCAASGGTFRVYAMGWYRQAPGKERELVAAITGRGGSTYYADSVKGRFTISRDNAKNTVYLQMNSLKPEETAVYYCAKDPVTTYYKYDYWGQGTQVTVSS | low polyreactivity
13 | QVQLVESGGGLVQAGGSLRLSCAASGGTFRYNAMGWYRQAPGKERELVAAITSVGITNYADSVKGRFTISRDNAKNTVYLQMNSLKPEDTAVYYCAKRYYRYGARSWYYPYDYWGQGTQVTVSS | high polyreactivity
14 | QVQLVESGGGLVQAGGSLRLSCAASGGTFRYYTMVWYRQAPGKERELVAAITRGGRTYYADSVKGRFTISRDNAKNTVYIQMNSLKPEDTAVYYCAAVRPRSPVSYENDYWGQGTQVTVSS | high polyreactivity
15 | QVQLVESGGGLVQAGGSLRLSCAASGGTFSPYDMGWYRQAPGKERELVASITGSGGSTYYADSVKGRFTISRGNAKNTVYLQMNSLKPEDTAVYYCAAQGYCTYWPYLLRLYEYWGHGTQVTVSS | low polyreactivity
16 | QVQLVESGGGLVQAGGSLRLSCAASGGTFSTYAMGWYRQAPGKERELVAAISWRGGSTYYADSVKGRFTISRDNAKNTVYLQMNSLKPEDTAVYYCAAYYSRGWLLYWDEMSYWGQGTQVTVSS | high polyreactivity
17 | QVQLVESGGGLVQAGGSLRLSCAASGGTFSVNAMGWYRQAHGTERELVAAISWRGGSTYNADSVKGRFTISRDTAKNTFYLQMNSLKPEDTAVYYCAKYRYYYYWFNYWGQGTQVNVSS | high polyreactivity
18 | QVQLVESGGGLVQAGGSLRLSCAASGGTFSYYAMGWYRQAPGKERELVAAISKRGGSTYYADSVKGRFTISRDNAKNTVYLQMNSLKPEETAVYYCARGYSWSVGYPRVQDMDYWGQGTQVTVSS | high polyreactivity
19 | QVQLVESGGGLVQAGGSLRLSCAASGGTFSYYAMGWYRQAPGKGELVAAISSGGSTNYADSVKGRFTISRDNAKNTVYLQMNSLKPEDTAVYYCAARYRFWGPYNYWGQGTQVTVSS | high polyreactivity
20 | QVQLVESGGGLVQAGGSLRLSCAASGGTFTDYAMGWYRQAPGKERELVAAISSVGSTNYADSVKGRFTITRDNAQNTVYLQMNSLNPEDTAVYYCAADVYRYWISEYDDYWGQGTQVNVSS | low polyreactivity
21 | QVQLVESGGGLVQAGGSLRLSCAASGGTFTFYAMGWYRQAPGKERELVATINWSGGSTYYADSVKGRFTISRDNAKNTVYLQMNSLKPEDTAVYYCNAAWPYKSVEYWGQGTQVTVSS | low polyreactivity
22 | QVQLVESGGGLVQAGGSLRLSCAASGGTFTGYAMGWYRQAPGKERELVAAIRSRGGSTYYADSVKGRFTISRDNAKNTVYLQLNSLKPEDTAFYYCNAVSRFSYGYDYWGQGTQVSVSS | high polyreactivity

Row | Sequence | polyreactivity (PSR sort gate)
23 | QVQLVESGGGLVQAGGSLRLSCAASGGTFTGYAMGWYRQEPGKERELVAGISRSGGSTYYADSVKGRFTISRDNAKNTVYLQMNSLKPEDTAVYYCAKDVLKYRYWYYPGYDYWGQGTQVTVSS | high polyreactivity
24 | QVQLVESGGGLVQAGGSLRLSCAASGGTFTRYAMGWYRQAPGKEREFVAAISGSGGSTYYADSVKGRFTISRDNAKNTVYLQMNSLKPEDTAVYYCNKVPVYPPSYYWGQGTQVTVSS | low polyreactivity
25 | QVQLVESGGGLVQAGGSLRLSCAASGGTFTTNAMGWYRQAPGKERELVAAITSSGVRTYYADSVKGRFTISRDNAKNTVYLQMNSLKPEDTAVYYCNAVTRYVRLTDDDYWGQGTQVTVSS | high polyreactivity
26 | QVQLVESGGGLVQAGGSLRLSCAASGGTFTYYAKGWYRQAPGKERELVAAISWSDTSTYYADSVKGRFTISRDNAKNTVYLQMNSLKPEDTAVYYCAAEFYVRYQADYEYWGQGTQVTVSS | high polyreactivity
27 | QVQLVESGGGLVQAGGSLRLSCAASGGTFTYYTMGWYRQAPRKERELVAAISTGGRTYYADSVKGRFTISRDNAKNTVYLQMNSLKPEDTAVYYCDADTYTSRSRYSGSGGYDYWGQGTQVTVSS | low polyreactivity
28 | QVQLVESGGGLVQAGGSLRLSCAASGGTFVSYALGWSRQAPGKERELVAAITYSGGSTYYADSVKGRFTISRDTAKNTVYLQMNSLKPEDTAVYYCAADLGRNLLHTYYYWGQGTQVTVSS | low polyreactivity
29 | QVQLVESGGGLVQAGGSLRLSCAASGGTFWIYAMGSYRQAPGKERELVAGISHGDSTYYADSVKGRFTISRDNAKNTVYLQMNSLKPEDTAVYYCARDYRNPPFAYEYWGQGTQVTVSS | low polyreactivity
30 | QVQLVESGGGLVQAGGSLRLSCAASGGTFWYNAMGLYRQAPGKERELVANIRRSGGRTNYADSVKGRFTISRDNAKNTVYLHMNSLKPEDTAVYYCAARVTPYRGFYYWGQGTQVTVSS | high polyreactivity
31 | QVQLVESGGGLVQAGGSLRLSCAASGGTFYDYAMGWYRQAPGKERELVAAISASGDSTYYADSVKGRFTISRDNAKNTVYLQMNSLKPEDTAVYYCAAEFTAFDGFDYWGQGTQVNVSS | low polyreactivity
32 | QVQLVESGGGLVQAGGSLRLSCAASGGTFYFYAMVWYRQAPGKERELVAAISRSGGSTYYADSVKGRFTISRDNAKNTVYLQMNSLKPEDTAVYYCAARYTGGGIRYDYWGQGTQVTVSS | high polyreactivity
33 | QVQLVESGGGLVQAGGSLRLSCAASGGTFYQYAMGWYIQAPGKERELVAAISRSGGRTYYADSVKGRFTISRDNAKNTVYLQMNSLIPEDTAVYYCAADDVGPPDFYYWGQGTQVTVSS | high polyreactivity
34 | QVQLVESGGGLVQAGGSLRLSCAASGGTFYVNAMGWYRQAPGKERELVADISYSGGRTYYADSVKGRFTISRDNAKKTVYLQMNSLKPEDTAVYYCAADPYWVGYGSPFGYWGQGTQVTVSS | high polyreactivity
35 | QVQLVESGGGLVQAGGSLRLSCAASGGTFYYYAMGWYRQAPGKERELVAAINVSGGNTYYADSVKGRFTISRDNAKNTVYLQMNSLKPEDTAVYYCAADPGARYYYWGQGTQVTVSS | low polyreactivity
36 | QVQLVESGGGLVQAGGSLRLSCAASGGTFYYYAMGWYRQAPGKERELVAAISWSGVSTSYADSVKGRFTISRDNAKNTVFLQMNSMKPEDTAVYYCAAGPFYYTGGHWGQGTQVTVSS | high polyreactivity
37 | QVQLVESGGGLVQAGGSLRLSCAASGGTFYYYAMGWYRQAPGKERELVAAITGTGGRTYYADSVKGRFTISRDNAKNTVYLQMNSLKPEDTAVYYCAKYPAARAVDYWGQGTQVTVSS | high polyreactivity
38 | QVQLVESGGGLVQAGGSLRLSCAASGGTFYYYAMGWYRQAPGKERELVATITWSGDSTNYADSVKGRFTISRDNAKNTVYLQMNSLKPEDTAVYYCAKDLTQSYEYDYWGQGTQVTVSS | low polyreactivity
39 | QVQLVESGGGLVQAGGSLRLSCAASGGTGARNAMGWYRQAPGKERELVATITRRAGTTYYADSVKGRFTISRDNAKNTVYLQMNSLKPEDTAVYYCARVATWGYYPYLIPEVGYDYWGQGTQVTVSS | high polyreactivity
40 | QVQLVESGGGLVQAGGSLRLSCAASGGTIAFNGMGWYRQAPGKERELVAAITWRSGSTYYADSVKGRFTISRDNAKNTVYLQMNSLKPEDTAVYYCAARLYRYTPFDYWGQGTQVTVSS | high polyreactivity
41 | QVQLVESGGGLVQAGGSLRLSCAASGGTIAPYAMGWYRQAPGKERELVATISYSGTSTNYADSVKGRFTISRDNAKNTVYLQMNSLKPEDTAVYYCAKRYHQYRWRGWLWGFDYWGQGTQVTVSS | high polyreactivity
42 | QVQLVESGGGLVQAGGSLRLSCAASGGTIGWYAMGWYRQAPGKERELVAAITSSGGTTFYADSVKGRFTISRDNAKNTVYLQMNSLKPEDTAVYYCAKRGKRPTRYKLGKYDYWGQGTQVTVSS | high polyreactivity
43 | QVQLVESGGGLVQAGGSLRLSCAASGGTIRYYAMGWYSQAPWKERELVAAISVGGGRTYYADSVKGRFTISRDNAKNTVYLQMNSLKPEDTAVYYCAADYASWSNWGYEYWGQGTQVTVSS | high polyreactivity
